Measurements published in publication PMC3228830, “Targeted Proteolysis of Plectin Isoform 1a Accounts for Hemidesmosome Dysfunction in Mice Mimicking the Dominant Skin Blistering Disease EBS-Ogna” (PLoS Genetics, 2011).

Target: the molecule itself
Experiment: SEC-MALS; Superose 6 10/300 GL column, 0.5 ml/min, protein 2 mg/ml, load 75 ul

B1: His-tagged wild-type plectin rod domain (pNV10) (domain or fragment)
chain: IKFISETLRRMEEEERLAEQQRAEERERLAEVEAALEKQRQLAEAHAQAKAQAELEAQELQRRMQEEVARREEAAVDAQQQKRSIQEELQHLRQSSEAEIQAKAQQVEAAERSRMRIEEEIRVVRLQLETTERQRGGAEGELQALRARAEEAEAQKRQAQEEAERLRRQVQDESQRKRQAEAELALRVKAEAEAAREKQRALQALDELRLQAEEAERRLRQAEAERARQVQVALETAQRSAEVELQSKRASFAEKTAQLERTLQEEHVTVAQLREEAERRAQQQAEAERAREEAERELERWQLKANEALRLRLQAEEVAQQKSLAQADAEKQKEEAEREARRRGKAEEQAVRQRELAEQELEKQRQLAEGTAQQRLAAEQELIRLRAETEQGEQQRQLLEEELARLQHEATAATQKRQELEAELAKVRAEMEVLLASKARAEEESRSTSEKSKQRLEAEAGRFRELAEEAARLRALAEEAKRQRQLAEEDAARQRAEAERVLTEKLAAISEATRLKTEAEIALKEKEAENERLRRLAEDEAFQRRRLEEQAALHKADIEERLAQLRKASESELERQKGLVEDTLRQRRQVEEEIMALKVSFEKAAAGKAELELELGRIRSNAEDTMRSKEQAELEAARQRQLAAEEEQRRREAEERVQRSLAAEEEAARQRKVALEEVERLKAKVEEARRLRERAEQESARQLQLAQEAAQKRLQAEEKAHAFVVQQREEELQQTLQQEQNMLDRLRSEAEAARRAAEEAEEAREQAEREAAQSRKQVEEAERLKQSAEEQAQAQAQAQAAAEKLRKEAEQEAARRAQAEQAALKQKQAADAEMEKHKKFAEQTLRQKAQVEQELTTLRLQLEETDHQKSILDEELQRLKAEVTEAARQRSQVEEELFSVRVQMEELGKLKARIEAENRALILRDKDNTQRFLEEEAEKMKQVAEEAARLSVAAQEAARLRQLAEEDLAQQRALAEKMLKEKMQAVQEATRLKAEAELLQQQKELAQEQARRLQEDKEQMAQQLVEETQGFQRTLEAERQRQLEMSAEAERLKLRMAEMSRAQARAEEDAQRFRKQAEEIGEKLHRTELATQEKVTLVQTLEIQRQQSDHDAERLREAIAELEREKEKLKQEAKLLQLKSEEMQTVQQEQILQETQALQKSFLSEKDSLLQRERFIEQEKAKLEQLFQDEVAKAKQLREEQQRQQQQMEQEKQELMASMEEARRRQREAEEGVRRKQEELQHLEQQRQQQEKLLAEENQRLRERLQRLEEEHRAALAHSEIATT
  stoichiometry N: 2
